Assay results from article PMC11237593, “Human coronavirus OC43 nanobody neutralizes virus and protects mice from infection” (Journal of Virology, 2024).
Changes are numbered by the printed parent chain.

B1: WNb 276 (VHH)
VHH: QVQLQESGGGLVQSGGSLRLSCAASGFTFSNYGMMWVRQAPGKGVEWVSRIDSDGTITLYKDSVKGRFTISRDNAKNMLYLQMESLKPEDTALYYCIKVMDWVPGRAPPFRGQGTQVTVSS
B2: WNb 280 (VHH)
VHH: QVQLQESGGGLVQAGGSLRLSCAASGRTFSNYFMGWFRQAPGKEREFVAAISWSGGSTYYTDSVKGRFTISRDNAKNTVYLQMNSLKPEDTAVYYCAGGLDMGWSRVNLGEYDYWGQGTQVTVSS
B3: WNb 281 (VHH)
VHH: QVQLQESGGGLVQAGGSLRLSCAASGRTFSDYFMGWFRQAPGKEREFVTAISWSGGSTYYADSVKGRFTISRDNAKNTVFLQMNSLKPEDTAVYYCAAALDEGWARVAGPEYDYWGQGTQVTVSS
B4: WNb 282 (VHH)
VHH: QVQLQESGGGLVQAGDSLRLSCAASGRTFSDYFMGWFRQAPGKEREFVASISWSGGTTYYADSVKGRFTISRDNAKNTVYLQMNRVKSEDTAVYYCAAARDMGWGRTGENEYDYWGQGTQVTVSS
B5: WNb 284 (VHH)
VHH: QVQLQESGGGLVQAGGPLRLSCAASGRTFSDYFMGWFRQAPGMEREFVASISWSGGTTYYADSVKGRFTISRDNAKNTVYLQMNSLKPEDTAVYYCAAAIDYGLGLTVEYEYDYWGQGTQVTVSS
B6: WNb 285 (VHH)
VHH: QVQLQESGGGLVQAGGSLRLSCAASGRTFSDYAMGWFRQAPGKEREFVAAISWSGGTTYYADSVKGRFTISRDNAKNTVYLQMNSLTPEDTAVYYCAADYDYGWGRVRVSEYDYWGQGTQVTVSS
B7: WNb 286 (VHH)
VHH: QVQLQESGGGLVQAGGSLRLSCAASGRTFSSYAMGWFHQAPGKEREFVASISWSGGTTYYADSVKGRFTISRDNAKNTVYLQMNSLKPEDTAVYYCAAAVDYGLGLYRVGEYDSWGQGTQVTVSS
B8: WNb 287 (VHH)
VHH: QLQESGGGLVQPGGSLRLSCAASGRTFSFSDYAMGWFRQAPGKEREFVASISWSGGTTYYADSVKGRFTISRDNAKNTVYLQMNSLKPEDTAVYYCAAEIDRGLLLHAVYEYDYWGQGTQVTVSS
B9: WNb 288 (VHH)
VHH: B6 VHH with A33F, T57S, F68S, T87K, Y100H, Y102R, G105A, V107L, V109L, S110A
B10: WNb 289 (VHH)
VHH: QVQLQESGGGLVQAGGSLRLSCAASGRTFSDYAMGWFRQAPGKEREFVATISWSGGTTYYADSVKGRFTISRDNAKNTVYLQMNSLKPEDTAVYYCAAVMDLGMLAADGYEYDYWGQGTQVTVSS
B11: WNb 291 (VHH)
VHH: B6 VHH with D31N, A33F, T87K, D99N, Y100T, W104M, R106F, V109A, S110Y
B12: WNb 278 (VHH)
VHH: B5 VHH with P17S, A75T, A98T
B13: WNb 292 (VHH)
VHH: B6 VHH with G16A, T87K, D99N, Y100T, W104L, R106L, V109A, S110Y
B14: WNb 293 (VHH)
VHH: QVQLQESGGGSVQAGDSLRLSCVASGRTFSSYALGWFRRAPGKEREFVAAISWSGGTTYYADSVKGRFTISRDNAKNTVYLQMNSLKPEDTAVYYCAALWDGGSWYPEGLSDFGSWGQGTQVTVSS
B15: WNb 294 (VHH)
VHH: B14 VHH with S11L, D16G, V23A, L34M, R39Q, A61G, L99Q, W100G, Y106F, S111A
B16: WNb 296 (VHH)
VHH: B5 VHH with P17S, M43K, K76N, E89V, A99V, I100A, V108T, E109S
B17: WNb 297 (VHH)
VHH: QVQLQESGGGSVQAGGSLRLSCAASGRTFSDYAMGWFRQAPGKEREFVASISWSGGTTYYADSVKGRFTISRDNAKNTVYLQMNSLKPEDTAVYYCAADTDYGMGLITVPDFGSWGQGTQVTVSS
B18: WNb 298 (VHH)
VHH: B17 VHH with S11L, A14P, A33F, D99E, T100I, M104L, I107H, T108A, V109A, P110A
B19: WNb 299 (VHH)
VHH: QVQLQESGGGWVQPGGSLRLSCAASGFTFSNYAMGWFRQAPGKEREFVATISWSGGTTVYADSVKGRFTISRDNAKNTVYLQMNSLKPEDTAVYYCAAASDYGMVQMSDYEYDYWGQGTQVTVSS
B20: WNb 279 (VHH)
VHH: B2 VHH with A14P, N31D, S52T, N108A
B21: WNbFc 293 (Fc fusion)
chain: B14 VHH
notes: also called WNb 293-Fc; WNb 293-Fc fusion; source: Expi293F, transfected, purified from supernatant (MabSelect Prism A, SEC)
B22: WNbFc 294 (Fc fusion)
chain: B14 VHH with S11L, D16G, V23A, L34M, R39Q, A61G, L99Q, W100G, Y106F, S111A
notes: source: Expi293F, transfected, purified from supernatant (MabSelect Prism A, SEC)

Biological target: T1, OC43 S1B+C (S1B and S1C domains of the hCoV-OC43 spike glycoprotein) (human coronavirus OC43, UniProt P36334 321-675)
T1 construct: also called recombinant OC43 S1B+C; recombinant OC43 protein; source: Expi293F, transfected, purified from supernatant (Ni-NTA IMAC, SEC); not shown: His6, C-terminal, cleaved
T1 sequence (looked up): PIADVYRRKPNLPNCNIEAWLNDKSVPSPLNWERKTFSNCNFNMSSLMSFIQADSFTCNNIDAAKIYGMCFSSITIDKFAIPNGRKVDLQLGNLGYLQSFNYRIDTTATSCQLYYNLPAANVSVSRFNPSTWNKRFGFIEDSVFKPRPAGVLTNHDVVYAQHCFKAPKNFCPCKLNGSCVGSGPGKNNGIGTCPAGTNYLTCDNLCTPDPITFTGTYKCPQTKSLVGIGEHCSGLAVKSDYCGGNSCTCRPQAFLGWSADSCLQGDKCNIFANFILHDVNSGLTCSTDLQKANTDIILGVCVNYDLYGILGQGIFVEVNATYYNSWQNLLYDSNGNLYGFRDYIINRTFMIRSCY
Test: BLI
Conditions: both partners purified

| Binder | Kd [µM] | koff [s⁻¹] | kon [M⁻¹ s⁻¹] |
| --- | --- | --- | --- |
| B1 | 0.00646 | 0.000518 | 82000 |
| B2 | 0.0229 | 0.00161 | 70000 |
| B3 | 0.00155 | 0.000183 | 118000 |
| B4 | 0.00246 | 0.000195 | 79000 |
| B5 | 0.00401 | 0.000363 | 91000 |
| B6 | 0.00423 | 0.000447 | 106000 |
| B7 | 0.0588 | 0.00245 | 42000 |
| B8 | 0.0112 | 0.000933 | 84000 |
| B9 | 0.0196 | 0.00124 | 64000 |
| B10 | 0.00473 | 0.000629 | 132000 |
| B11 | 0.0117 | 0.000527 | 45000 |
| B12 | 0.00593 | 0.0004 | 68000 |
| B13 | 0.0156 | 0.00116 | 75000 |
| B14 | 0.0046 | 0.000417 | 91000 |
| B15 | 0.026 | 0.00106 | 41000 |
| B16 | 0.0153 | 0.000786 | 51000 |
| B17 | 0.0214 | 0.00199 | 93000 |
| B18 | 0.00894 | 0.000987 | 111000 |
| B19 | 0.0099 | 0.00103 | 104000 |
| B20 | 0.149 | 0.0086 | 58000 |

Biological target: T1, OC43 S1B+C (S1B and S1C domains of the …)
Test: not given
Conditions: both partners purified

| Binder | Kd [µM] | koff [s⁻¹] | kon [M⁻¹ s⁻¹] |
| --- | --- | --- | --- |
| B21 | 0.00751 | 0.000758 | 101000 |
| B22 | 0.0369 | 0.00164 | 45000 |
